Numbering of substitutions follows the chain as printed. Several values for one entry are separate records, joined by “and”; a condition that tells them apart may be missing. Identical values can stand only once.
B1: mAb9.01F3: phage-display derived anti-hemagglutinin monoclonal antibody; VL SEQ ID NO:166, VH SEQ ID NO:164 (antibody, V domains shown)
VH: QVQLVQSGAEVKQPGASVKVSCKASGYTFNAYYIHWVRQAPGQGLEWMGWINPNFGGTHYARKFQGRVTMTRDASINTAYMELDRLISDDTAVYYCVRWRAAAVIMDQFYKMDVWGQGTLVTVSS
VL: SSELTQPPSASGTPGQRVTISCSGSTSNIGYNPVSWYQQVPGTAPKLLIYSNTERPSGVPDRFSGSKSGTSASLAISGLQSEDEADYYCAAWDDTLNGPVFGGGTKVTVL
B2: mAb 36.89: anti-hemagglutinin monoclonal antibody; VL SEQ ID NO:162, VH SEQ ID NO:160 (antibody, V domains shown)
VH: QVQLVQSGAELKRPGASVKVSCKTSGYSFNNYGINWVRQAPGQGLEWMGWISAYTGNTHYAKNFEGRVTLTTDTSTSTAYMEVRSLRSDDSAVYFCARAMIQGVVTLYLRPGDYWGQGTLVTVSS
VL: DIVMTQSPSTLSASVGDRVTITCRASQSIGNWLAWYQQKPGKAPKLLIYKVSTLESGVPSRFSGSGSGTEFTLTINSLQPDDFATYYCQRYTSNSQGFTFGQGTKLEIK
B3: mAb 39.29 NCv1: anti-hemagglutinin monoclonal antibody; VL SEQ ID NO:144, VH SEQ ID NO:142 (antibody, V domains shown)
VH: QVQLVESGGGVVQPGKSPRLSCAASGPTFSSYAVHWVRQAPGKGLEWVTLISYDGANQYYADSVKGRFTISRDNSKNTVYLQMNSLRPEDTAVYYCAVPGPVFGIFPPWSYFDNWGQGILVTVSS
VL: EIVLTQSPATLSVSPGERATLSCRASQVISHNLAWYQQKPGQAPRLLIYGASTRASGIPARFSGSGSGTDYTLTITSLQPEDFAVYYCQHYSNWPPRLTFGGGTKVEIK
B4: mAb 81.39 SVSH-NYP: anti-hemagglutinin monoclonal antibody; VL SEQ ID NO:117, VH SEQ ID NO:115 (antibody, V domains shown)
VH: EVQLVESGGGVVQPGRSLRLSCAASGFAFHNRAMHWVRQAPGKGLEWVALIYFDGSKQYYADSVKGRFTISRDNSKNTVFLQMNSLRPEDTAVYYCAVPGPIFGIFPPWSYFDHWGQGILVTVSS
VL: EIVLTQSPATLSVSPGERATLSCRASQSVSHNLAWYQQKPGQAPRLLVYSASTRATGIPARFSGSGSGTEFTLAISSLQSEDFAVYYCQHYTNYPPRLTFGGGSKVEIK
B5: mAb 81.39 B1C1: anti-hemagglutinin monoclonal antibody; VL SEQ ID NO:113, VH SEQ ID NO:111 (antibody, V domains shown)
VH: B4 VH with E1Q
VL: B4 VL with S30D, H31S, Y94W
B6: mAb 81.39: anti-hemagglutinin monoclonal antibody 81.39, variant not specified in the competition ELISA (antibody, V domains shown)
VH: B4 VH
VL: B4 VL with Y94W
B7: mAb23.06C2: phage-display derived anti-hemagglutinin monoclonal antibody; VL SEQ ID NO:170, VH SEQ ID NO:168 (antibody, V domains shown)
VH: QVQLQESGPGLVKPSETLSLTCTVSGGLIGTGSYYWGWIRQTPGKGMEWIGSISYSGSTYYHPSLKSRVTISDDTSKNQLFLKLRSVTAADTAQYYCARYNWGIRYFDFWGRGTLVTVSS
VL: DIQLTQSPLSPPVTLGQPASISCRSSQSLLYTDGFTYLSWYHQRPGQSPRRLIYKISNRDSGVPDRFSGSGSGTDFTLKISRVEAEDVGVYYCMQATHWPLTFGEGTKVEIK
B8: mAb 39.18 B11: anti-hemagglutinin monoclonal antibody; VL SEQ ID NO:156, VH SEQ ID NO:154 (antibody, V domains shown)
VH: EVQLVQSGAEVKKPGSSMKVSCKASGSIFSNYGISWVRQAPGQGLEWMGGIIPIFGAANYAQKFQGRVTITADESTSTVYMEVRSLRSEDTAVYYCARRQQLYKGYYHHWGQGTLVTVSS
VL: EIVLTQSPATLSVSPGERVTLSCRASQSVANNLAWYQQKPGQSPRLLIYGASTRDTGIPARFSGSGSGTEFTLTISSLQSEDFAVYYCQQYNNWPPMYTFGQGTKLEIK

Experiments:
[1] = tested on: H5N1 A/Vietnam/1203/04 influenza A virus; format: in vivo, ferrets (Mustela putorius furo)
[2] = tested on: Group1 influenza A virus strains; format: cell-based
[3] = tested on: Group2 influenza A virus strains; format: cell-based
[4] = tested on: hemagglutinin H1 from A/NWS/1933; format: binding, influenza A virus
[5] = tested on: hemagglutinin H3 from A/HK/8/1968; format: binding, influenza A virus
[6] = tested on: H3N2 A/Port Chalmers/1/1973; format: cell-based, influenza A virus; conditions: read-out: in vitro IC50
H3N2 A/Aichi/2/1968 [7] = format: cell-based, influenza A virus; conditions: read-out: in vitro IC50
[8] = tested on: HIV pseudotype virus bearing hemagglutinin H5 from H5N1/Vietnam/1203/2004; format: cell-based
H3N2 A/Hong Kong/1/1968 = tested on: H3N2 A/Hong Kong/1/1968; set-up: species or system DBA/2J mice; conditions: mouse
[9] = tested on: H3N2 A/Port Chalmers/1/1973; set-up: species or system DBA/2J mice; conditions: mouse, in vivo
H3N2 A/Aichi/2/1968 [10] = tested on: H3N2 A/Aichi/2/1968; set-up: species or system DBA/2J mice; conditions: mouse, in vivo
[11] = read-out: EC50 competition with biotinylated mAb 39.29

| Molecule | in vitro neutralization of Group1 influenza A virus panel [2] | in vitro neutralization of Group2 influenza A virus panel [3] | competition for binding of mAb 39.29 on Group1 H1 hemagglutinin stalk [4] | competition for binding with mAb 39.29 on Group2 H3 hemagglutinin stalk epitope [5] | also measured |
| --- | --- | --- | --- | --- | --- |
| CCOC(=O)C1=C[C@@H](OC(CC)CC)[C@H](NC(C)=O)[C@@H](N)C1 [oseltamivir, oseltamivir phosphate, reference compound] | – | – | – | – | mortality ([1]; twice-daily oral 25 mg/kg for 5 days, irrespective of treatment initiation time (48 or 72 hours)): 50% |
| B1 | not able to neutralize any Group1 influenza A virus isolate tested | able to neutralize the entire Group2 influenza A virus panel examined | do not compete for binding | compete for binding | – |
| B2 | not able to neutralize any Group1 influenza A virus isolate tested | able to neutralize the entire Group2 influenza A virus panel examined | do not compete for binding | compete for binding | – |
| B3 | – | – | – | – | IC50 [6]: 2.9 nM; IC50 (H3N2 A/Aichi/2/1968 [7]): 35 nM; in vitro neutralization of pseudotype virus expressing hemagglutinin H5 [8]: dose-dependent in vitro neutralization; mice protected (survival) (H3N2 A/Hong Kong/1/1968; in vivo): 87.5% and 75%; minimum efficacious dose in vivo (H3N2 A/Hong Kong/1/1968; iv): 15 mg/kg; efficacy at all tested doses [9]: very efficacious; efficacy at all tested doses (H3N2 A/Aichi/2/1968 [10]): very efficacious |
| B4 | effective at the in vitro neutralization of all influenza A virus strains tested | effective at the in vitro neutralization of all influenza A virus strains tested | – | – | – |
| B5 | – | – | – | – | survival ([1]; in vivo, iv, 25 mg/kg): 100% and 80% |
| B6 | – | – | compete for binding | compete for binding | EC50 [4, 11]: 2.15 nM; EC50 [5, 11]: 4.21 nM |
| B7 | not able to neutralize any Group1 influenza A virus isolate tested | able to neutralize the entire Group2 influenza A virus panel examined | do not compete for binding | compete for binding | – |
| B8 | effective at in vitro neutralization of the entire Group1 influenza A virus panel examined | not able to neutralize Group2 influenza A virus strains | – | – | – |

— US9598481B2 (priority 2012, dated 2017)
